Measured values: patent US20200317817A1 (XOMA US, published 2020)
Each block holds one binder with its values, some of them ahead of it.

Columns and labels:
[1] = biological target: T1, recombinant N-terminal extracellular domain of the human PTH1R receptor (human, UniProt Q03431 27-188, limits assumed); test: SPR, IgG captured, ECD injected
T1 construct: domain: N-terminal extracellular domain; Bought reagent; also called N-ECD PTH1R; PTH1R N-terminal ECD
T1 sequence (looked up): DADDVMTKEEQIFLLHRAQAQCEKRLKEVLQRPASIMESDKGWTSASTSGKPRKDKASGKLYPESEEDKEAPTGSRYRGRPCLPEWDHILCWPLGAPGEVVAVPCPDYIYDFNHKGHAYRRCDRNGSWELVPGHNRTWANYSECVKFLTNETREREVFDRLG
Summary of the method: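 Antibodies (0.5 μg/mL) captured on anti-human IgG-Fc chip to 100–200 RU in HBS-EP+ with 2.5 mg/mL BSA; receptor ECD injected at 30 μL/minute for 240 s, 360 s dissociation, 3M MgCl regeneration. Double-referenced data fit globally for ka and kd; KD=kd/kₐ.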

[2] = biological target: T2, mouse PTH1R overexpressed on CHO cells (mouse, UniProt P41593 27-591); test: flow cytometry on CHO cells, with 3 uM PTHrP as competitor
T2 construct: whole, on cells; also called CHO mouse PTH1R; CHO Mouse PTHR
T2 sequence (looked up): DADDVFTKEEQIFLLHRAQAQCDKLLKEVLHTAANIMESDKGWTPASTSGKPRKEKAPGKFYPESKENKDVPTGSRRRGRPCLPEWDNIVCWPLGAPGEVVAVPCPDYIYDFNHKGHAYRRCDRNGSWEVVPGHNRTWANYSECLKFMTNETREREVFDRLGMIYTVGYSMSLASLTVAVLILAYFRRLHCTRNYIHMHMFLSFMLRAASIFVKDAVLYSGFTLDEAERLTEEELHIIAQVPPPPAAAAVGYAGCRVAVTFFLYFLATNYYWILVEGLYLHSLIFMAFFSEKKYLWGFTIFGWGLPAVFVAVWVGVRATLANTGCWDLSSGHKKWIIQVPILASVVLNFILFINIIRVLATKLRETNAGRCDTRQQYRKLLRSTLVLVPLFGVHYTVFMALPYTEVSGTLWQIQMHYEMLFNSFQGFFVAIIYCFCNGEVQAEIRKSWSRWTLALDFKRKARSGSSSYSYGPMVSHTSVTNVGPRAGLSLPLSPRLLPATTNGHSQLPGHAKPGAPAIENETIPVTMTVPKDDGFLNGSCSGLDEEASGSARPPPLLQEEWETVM
Protocol: (§1) To characterize antibody binding to PTH1R, cells were labeled with either CellTrace™ CFSE or CellTrace™ Violet. Unlabeled CHOK1 parent, CHO human PTH1R labeled with CellTrace™CFSE, and CHO mouse PTH1R labeled with CellTrace™Violet were pooled together and stained with increasing concentrations of antibody. Antibodies were incubated for 24 hr at 4° C. followed by two washes with FACS Buffer (0.5% BSA, 0.1% NaN3 in DPBS). Cells were then incubated with Allophycocyanin (APC) AffiniPure F(ab′)₂ Fragment Goat Anti-Human IgG (H+L) (Jackson ImmunoResearch, West Grove, Pa.) for 20 minutes at 4° C. Followed by two washes, cells were resuspended in FACS Buffer. Samples were acquired using BD Cytometer (BD Biosciences, San Jose, Calif.) and data were analyzed using FlowJo (FlowJo, LLC, Ashland, Oreg.) and Prism (GraphPad Software, La Jolla, Calif.).

[3] = biological target: T3, human PTH1R overexpressed on CHO cells (human, UniProt Q03431 27-593); test: as above
T3 construct: whole, on cells; also called CHO human PTH1R; CHO Human PTHR
T3 sequence (looked up): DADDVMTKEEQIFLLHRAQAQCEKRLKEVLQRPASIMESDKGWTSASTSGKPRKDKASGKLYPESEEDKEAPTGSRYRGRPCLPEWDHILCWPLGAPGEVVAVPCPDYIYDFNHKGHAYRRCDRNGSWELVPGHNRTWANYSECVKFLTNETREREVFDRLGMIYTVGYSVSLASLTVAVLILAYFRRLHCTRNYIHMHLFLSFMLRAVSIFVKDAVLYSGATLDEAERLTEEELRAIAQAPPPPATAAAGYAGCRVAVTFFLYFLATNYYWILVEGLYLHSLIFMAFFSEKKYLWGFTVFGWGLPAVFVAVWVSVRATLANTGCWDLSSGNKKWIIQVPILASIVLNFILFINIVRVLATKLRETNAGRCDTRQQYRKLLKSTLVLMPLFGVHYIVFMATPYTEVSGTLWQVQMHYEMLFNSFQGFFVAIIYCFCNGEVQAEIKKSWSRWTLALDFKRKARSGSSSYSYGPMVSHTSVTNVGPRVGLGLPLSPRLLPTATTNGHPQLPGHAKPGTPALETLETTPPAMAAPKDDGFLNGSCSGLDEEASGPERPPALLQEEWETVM
Protocol: as §1

[4] = biological target: T3, human PTH1R overexpressed on CHO cells; test: cell-based or functional assay
[5] = biological target: T2, mouse PTH1R overexpressed on CHO cells; test: flow cytometry on CHO cells, 24 hr at 4 C
Protocol: as §1

[6] = biological target: T3, human PTH1R overexpressed on CHO cells; test: flow cytometry on CHO cells, 24 hr at 4 C
Protocol: as §1

[7] = biological target: T2, mouse PTH1R overexpressed on CHO cells; test: flow cytometry on CHO cells, antibody alone
Protocol: as §1

[8] = biological target: T3, human PTH1R overexpressed on CHO cells; test: flow cytometry on CHO cells, antibody alone
Protocol: as §1

Kd [1]: 0.22 nM
koff [1]: 7.6e-05 s⁻¹
kon [1]: 340000 M⁻¹ s⁻¹
B1: XPA.85.329 (antibody, V domains shown)
VH: QMQLVQSGAEVKKPGSSVKVSCKASGGTFSSYAISWVRQAPGQGLEWMGGIIPIFGTANYAQKFQGRVTITADESTSTAYMELSSLRSEDTAVYYCARGYVVARLWGQGTLVTVSS
VL: DIVMTQTPLSLSVTPGQPASISCKSSQSLLHIDGLTYLYWYLQKPGQPPQLLIYEVSHRFSGVSDKFSGSGSGTDFTLTISRVEAEDVGVYYCMQSLHLPITFGQGTRLEIK
notes: IgG; also called Ab329; XPA.329

EC50 [2]: 14.5 nM
EC50 [3]: 1.11 nM
Kd [1]: 0.31 nM
koff [1]: 0.0006 s⁻¹
kon [1]: 1.9e+06 M⁻¹ s⁻¹
EC50 of PTH(1-34), cAMP assay, with 267 nM IgG [4]: 0.404 nM
EC50 [5]: 0.343 nM
EC50 [6]: 0.202 nM
EC50 [7]: 0.337 nM
EC50 [8]: 0.196 nM
B2: XPA.85.341 (antibody, V domains shown)
VH: EVQLVETGGGVVRPGGSLRLSCAASGFTFSSSAMSWVRQTPGKELQWVSAITPGGEGTYYADVVKGRFTISRDNSKDTLYLQMDSLRAEDTAVYYCARDLYGSYGDAFDIWGQGTLVTVSS
VL: SYELTQPSSVSVSPGQTASITCSGDKLGEKYASWYQQKPGQSPVLVMFEDTKRPSGIPERFSGSNSGNTATLTISGTQAEDEADYYCQAWDSSWVFGGGTQLTVL
notes: Light-chain-shuffled variant of XPA.85.017

EC50 [2]: 1.51 nM
EC50 [3]: 0.304 nM
Kd [1]: 0.099 nM
koff [1]: 0.00036 s⁻¹
kon [1]: 3.6e+06 M⁻¹ s⁻¹
EC50 of PTH(1-34), cAMP assay, with 267 nM IgG [4]: 0.908 nM
EC50 of PTHrP(1-34), cAMP assay, with 267 nM IgG [4]: 52.7 nM
fold-shift in PTH(1-34) EC50 vs vehicle only, cAMP assay [4]: 29 fold
fold-shift in PTHrP(1-34) EC50 vs vehicle only, cAMP assay [4]: > 100 fold
EC50 [5]: 0.216 nM
EC50 [6]: 0.044 nM
EC50 [7]: 0.281 nM
EC50 [8]: 0.0909 nM
B3: XPA.85.287 (antibody, V domains shown)
VH: B2 VH
VL: SYVLTQPPSVSVAPGQTARITCSGDKLGDRYVSWYQQKPGQSPVLVMFEDTGRPAGIPERFSGSNSGNTATLTISGTQAEDEADYYCQAWGTSWVFGGGTQLTVL
notes: also called Ab287

EC50 [2]: 18.7 nM
EC50 [3]: 0.479 nM
Kd [1]: 0.22 nM
koff [1]: 0.00065 s⁻¹
kon [1]: 2.9e+06 M⁻¹ s⁻¹
EC50 of PTH(1-34), cAMP assay, with 267 nM IgG [4]: 0.613 nM
EC50 [5]: 0.234 nM
EC50 [6]: 0.142 nM
EC50 [7]: 0.258 nM
EC50 [8]: 0.0984 nM
B4: XPA.85.339 (antibody, V domains shown)
VH: B2 VH
VL: SYELTQPPSVSVAPGQTATITCSGDRLGDKFISWYQQKPGQSPLLVIFEDNERPSRIPERFSGSNSGNSATLTISGTQAVDEADYYCQAWDSSWVFGGGTQLTVL
notes: as for B2
